{"source": "patent US20230374078A1", "molecular_target": "variant of repaired and stabilized Du422 construct (HIV161818) with the additional K655I substitution (HIV-1 clade C strain Du422)", "test": "assay not named in the sentence (data not shown); trimer yield by AlphaLISA elsewhere", "data": [{"substance": "mAb PGT145 (antibody)", "values": [{"measurement": "trimer yield (PGT145 AlphaLISA signal), factor over the variant of SEQ ID NO: 25 without K655I", "result": 1.3, "unit": "fold"}]}]}
